The numbers were not newly measured in publication PMC5356237, which cites them from elsewhere.

The data set deals with HER3 (Homo sapiens) (UniProt P21860).
UniProt P21860, sequence (P21860 20-1342): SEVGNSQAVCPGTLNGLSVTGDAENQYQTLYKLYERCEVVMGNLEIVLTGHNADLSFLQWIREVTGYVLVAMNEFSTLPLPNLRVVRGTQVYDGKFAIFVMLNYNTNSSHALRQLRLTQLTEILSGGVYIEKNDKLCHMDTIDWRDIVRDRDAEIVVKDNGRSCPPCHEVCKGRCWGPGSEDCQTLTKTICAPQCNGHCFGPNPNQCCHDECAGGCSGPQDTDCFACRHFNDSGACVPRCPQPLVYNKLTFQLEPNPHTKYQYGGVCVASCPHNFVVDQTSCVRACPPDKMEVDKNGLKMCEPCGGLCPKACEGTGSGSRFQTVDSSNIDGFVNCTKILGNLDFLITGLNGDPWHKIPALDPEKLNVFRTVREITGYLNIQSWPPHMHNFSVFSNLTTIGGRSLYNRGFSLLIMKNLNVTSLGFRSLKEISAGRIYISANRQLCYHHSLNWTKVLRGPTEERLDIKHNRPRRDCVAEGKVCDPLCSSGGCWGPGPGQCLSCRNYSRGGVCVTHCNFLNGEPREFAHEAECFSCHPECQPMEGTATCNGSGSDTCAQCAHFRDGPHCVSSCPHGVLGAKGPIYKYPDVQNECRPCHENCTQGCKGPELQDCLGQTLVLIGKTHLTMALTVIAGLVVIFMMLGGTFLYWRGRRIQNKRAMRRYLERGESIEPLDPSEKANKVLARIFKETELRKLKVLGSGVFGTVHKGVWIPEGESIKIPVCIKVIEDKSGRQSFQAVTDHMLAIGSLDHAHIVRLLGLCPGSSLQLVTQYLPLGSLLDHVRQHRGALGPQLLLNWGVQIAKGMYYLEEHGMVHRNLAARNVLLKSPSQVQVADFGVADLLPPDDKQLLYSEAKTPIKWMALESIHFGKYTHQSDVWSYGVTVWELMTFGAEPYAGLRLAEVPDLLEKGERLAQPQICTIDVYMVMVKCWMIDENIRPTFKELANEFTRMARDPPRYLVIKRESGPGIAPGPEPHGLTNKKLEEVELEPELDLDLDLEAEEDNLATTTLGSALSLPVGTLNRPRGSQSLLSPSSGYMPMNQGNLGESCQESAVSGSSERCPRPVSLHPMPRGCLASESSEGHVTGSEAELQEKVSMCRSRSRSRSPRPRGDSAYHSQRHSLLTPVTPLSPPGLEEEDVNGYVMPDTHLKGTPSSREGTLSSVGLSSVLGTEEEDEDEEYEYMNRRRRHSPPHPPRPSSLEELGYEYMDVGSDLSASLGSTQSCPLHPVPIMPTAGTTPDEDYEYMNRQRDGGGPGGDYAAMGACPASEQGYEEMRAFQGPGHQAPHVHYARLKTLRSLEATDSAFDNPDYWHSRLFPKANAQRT

Take NRG1b (from UniProt Q02297): the equilibrium dissociation constant (Kd) (commonly a measure of binding affinity in units of concentration) was 0.1 nM.
